Consider six molecules from patent CN108610419A.

For orientation: Kd means the concentration at which binding is half-saturated.

B1: m14C5B (antibody, mouse IgG1, V domains shown)
VH: EVQLQQSGPELEKPGASVKISCRTSGYSFTMYNINWVKQTNGKSLEWIGNLDAYYGGSNYNPKFKDKATLTVDISSNTAFMQLWSLTSEDSAVYYCTRILWSRDFYTMDYWGRGTSVTVSS
VL: DIQVTQTSSSLSASLGDRVTITCRTSQDISNYLHWYQQTPDGTVKLLIYSTSTGHSGVPSRFSGSGSGTDYSLTISNLEQEDIATYFCQQSYTLAYTFGGGTKLEIKR
B2: hu14C5B (antibody, V domains shown, not shown: a dimerising Fc or GST)
VH: EVQLVESGGGLVQPGGSLRLSCAASGYSFTMYNINWVKQAPGKGLEWIGNLDAYYGGSNYNPKFKDKATLSRDNSKNTAYLQMNSLRAEDTAVYYCTRILWSRDFYTMDYWGQGTLVTVSS
VL: DIQVTQSPSSLSASVGDRVTITCRTSQDISNYLHWYQQKPGKAPKLLIYSTSTGHSGVPSRFSGSGSGTDFTLTISSLQPEDFATYFCQQSYTLAYTFGQGTKVEIKR
B3: hu14C5B-2 (antibody, V domains shown, not shown: a dimerising Fc or GST)
VH: B2 VH with Y27F, S28T, T30S, M31L, A53P, F105Y
VL: B2 VL with G54A, A95L
B4: hu14C5B-5 (antibody, human IgG1, kappa, V domains shown)
VH: B2 VH with Y27F, S28T, T30S, M31A, A53P, F105Y
VL: B2 VL with G54L, A95P
B5: hu14C5B-6 (antibody, V domains shown, not shown: a dimerising Fc or GST)
VH: B2 VH with Y27F, S28T, T30S, M31L, A53P, F105Y
VL: B2 VL with G54L, A95P
B6: hu14C5B-1 (antibody, V domains shown, not shown: a dimerising Fc or GST)
VH: B2 VH with Y27F, S28T, T30S, M31A, A53P, F105Y
VL: B2 VL with G54A, A95L

Changes are numbered by the printed parent chain.

The test has as its target 重组人HER2蛋白的胞外区 (rHER2-ECD) (human) (UniProt P04626). The test is described as follows: SPR (BIACORE3000), rHER2-ECD coupled to CM5 chip, antibody in flow, 25 °C. On the technique in general: SPR reads the build-up and loss of mass on a sensor chip optically.
For B1, the Kd came to 0.295 nM.

Take B2: the Kd is 0.242 nM.

Molecule B3 showed a Kd of 31.5 nM.

With B4, the Kd came out at 0.186 nM.

In the case of B5, the Kd came to 4.62 nM.

B6 came in with a Kd of 8.53 nM.
